Residue numbers refer to the chain shown, from its start. Numbers in names are those of the source.
T1: G-CSF receptor linked to Fc domain of human IgG (human, UniProt Q99062 25-627, limits assumed)
T1 sequence (looked up): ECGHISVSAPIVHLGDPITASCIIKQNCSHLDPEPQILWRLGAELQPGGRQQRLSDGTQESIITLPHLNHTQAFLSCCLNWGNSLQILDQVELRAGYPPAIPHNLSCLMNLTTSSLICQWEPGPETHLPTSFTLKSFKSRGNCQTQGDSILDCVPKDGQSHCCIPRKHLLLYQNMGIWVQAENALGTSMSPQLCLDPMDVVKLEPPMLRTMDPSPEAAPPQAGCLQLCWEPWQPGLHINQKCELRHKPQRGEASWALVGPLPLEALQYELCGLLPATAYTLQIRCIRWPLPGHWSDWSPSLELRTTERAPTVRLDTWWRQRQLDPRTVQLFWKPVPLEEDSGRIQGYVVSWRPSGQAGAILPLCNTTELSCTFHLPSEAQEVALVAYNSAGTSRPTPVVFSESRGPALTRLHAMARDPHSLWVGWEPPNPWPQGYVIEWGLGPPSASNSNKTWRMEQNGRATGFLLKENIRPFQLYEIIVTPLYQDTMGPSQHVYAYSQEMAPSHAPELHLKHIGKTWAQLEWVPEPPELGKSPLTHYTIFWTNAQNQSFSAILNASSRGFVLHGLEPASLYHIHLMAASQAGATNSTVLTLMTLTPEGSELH

B1: wild type G-CSF (ligand)
chain: TPLGPASSLPQSFLLKCLEQVRKIQGDGAALQEKLCATYKLCHPEELVLLGHSLGIPWAPLSSCPSQALQLAGCLSQLHSGLFLYQGLLQALEGISPELGPTLDTLQLDVADFATTIWQQMEELGMAPALQPTQGAMPAFASAFQRRAGGVLVASHLQSFLEVSYRVLRHLAQP
notes: cDNA from leukocytes of healthy people; expressed in CHO-K1 cells; also called G-CSF wild type
B2: G-CSF-[F160V] (ligand)
chain: B1 chain with F160V
notes: G-CSF mutein expressed in CHO-K1 cells
B3: G-CSF F13V (ligand)
cytokine chain: B1 chain with F13V
notes: used as CHO-K1 culture supernatant
B4: G-CSF-[F140V] (ligand)
chain: B1 chain with F140V
notes: G-CSF mutein expressed in CHO-K1 cells; also called G-CSF-[F140VD]
B5: G-CSF F113V (ligand)
cytokine chain: B1 chain with F113V
notes: as for B3

Target: T1, G-CSF receptor linked to Fc domain of …
Test: ELISA on coated G-CSF receptor-Fc, done like the TPO ELISA

| EC50 (read off the curve) [µg/mL] | Binder |
| --- | --- |
| ~0.04 | B1 |
| ~0.04 | B2 |
| ~0.03 | B3 |
| ~0.06 | B4 |
| ~0.06 | B5 |

From patent US20130089513A1 (MEDEXGEN, published 2013)
